Measured values published in IntAct's records for PubMed 25910212.

B1: U4/U6 small nuclear ribonucleoprotein Prp3 (Homo sapiens), O43395 (parent)
chain: MALSKRELDELKPWIEKTVKRVLGFSEPTVVTAALNCVGKGMDKKKAADHLKPFLDDSTLRFVDKLFEAVEEGRSSRHSKSSSDRSRKRELKEVFGDDSEISKESSGVKKRRIPRFEEVEEEPEVIPGPPSESPGMLTKLQIKQMMEAATRQIEERKKQLSFISPPTPQPKTPSSSQPERLPIGNTIQPSQAATFMNDAIEKARKAAELQARIQAQLALKPGLIGNANMVGLANLHAMGIAPPKVELKDQTKPTPLILDEQGRTVDATGKEIELTHRMPTLKANIRAVKREQFKQQLKEKPSEDMESNTFFDPRVSIAPSQRQRRTFKFHDKGKFEKIAQRLRTKAQLEKLQAEISQAARKTGIHTSTRLALIAPKKELKEGDIPEIEWWDSYIIPNGFDLTEENPKREDYFGITNLVEHPAQLNPPVDNDTPVTLGVYLTKKEQKKLRRQTRREAQKELQEKVRLGLMPPPEPKVRISNLMRVLGTEAVQDPTKVEAHVRAQMAKRQKAHEEANAARKLTAEQRKVKKIKKLKEDISQGVHISVYRVRNLSNPAKKFKIEANAGQLYLTGVVVLHKDVNVVVVEGGPKAQKKFKRLMLHRIKWDEQTSNTKGDDDEESDEEAVKKTNKCVLVWEGTAKDRSFGEMKFKQCPTENMAREHFKKHGAEHYWDLALSESVLESTD
partner: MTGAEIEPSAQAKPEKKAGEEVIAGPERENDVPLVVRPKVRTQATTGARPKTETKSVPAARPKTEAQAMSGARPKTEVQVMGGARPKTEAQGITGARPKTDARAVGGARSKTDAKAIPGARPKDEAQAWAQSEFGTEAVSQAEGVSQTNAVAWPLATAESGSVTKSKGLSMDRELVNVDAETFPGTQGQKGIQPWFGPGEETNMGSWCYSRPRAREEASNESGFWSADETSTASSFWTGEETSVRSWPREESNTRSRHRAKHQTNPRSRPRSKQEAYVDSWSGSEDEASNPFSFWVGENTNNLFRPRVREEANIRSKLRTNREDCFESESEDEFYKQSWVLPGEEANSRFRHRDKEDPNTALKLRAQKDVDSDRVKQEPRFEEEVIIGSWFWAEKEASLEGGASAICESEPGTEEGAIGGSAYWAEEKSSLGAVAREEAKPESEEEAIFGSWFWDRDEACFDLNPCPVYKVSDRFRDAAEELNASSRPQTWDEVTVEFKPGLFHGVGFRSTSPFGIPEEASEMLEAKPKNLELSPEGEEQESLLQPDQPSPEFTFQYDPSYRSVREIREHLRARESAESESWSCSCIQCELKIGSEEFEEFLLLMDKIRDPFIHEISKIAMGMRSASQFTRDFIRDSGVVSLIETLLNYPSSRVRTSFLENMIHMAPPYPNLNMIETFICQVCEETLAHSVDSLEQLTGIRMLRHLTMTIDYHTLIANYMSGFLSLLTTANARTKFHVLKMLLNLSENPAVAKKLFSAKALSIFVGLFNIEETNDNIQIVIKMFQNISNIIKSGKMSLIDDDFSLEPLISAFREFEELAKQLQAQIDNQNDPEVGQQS
B2: DNA ligase 4 (Homo sapiens), P49917 (parent)
chain: MAASQTSQTVASHVPFADLCSTLERIQKSKGRAEKIRHFREFLDSWRKFHDALHKNHKDVTDSFYPAMRLILPQLERERMAYGIKETMLAKLYIELLNLPRDGKDALKLLNYRTPTGTHGDAGDFAMIAYFVLKPRCLQKGSLTIQQVNDLLDSIASNNSAKRKDLIKKSLLQLITQSSALEQKWLIRMIIKDLKLGVSQQTIFSVFHNDAAELHNVTTDLEKVCRQLHDPSVGLSDISITLFSAFKPMLAAIADIEHIEKDMKHQSFYIETKLDGERMQMHKDGDVYKYFSRNGYNYTDQFGASPTEGSLTPFIHNAFKADIQICILDGEMMAYNPNTQTFMQKGTKFDIKRMVEDSDLQTCYCVFDVLMVNNKKLGHETLRKRYEILSSIFTPIPGRIEIVQKTQAHTKNEVIDALNEAIDKREEGIMVKQPLSIYKPDKRGEGWLKIKPEYVSGLMDELDILIVGGYWGKGSRGGMMSHFLCAVAEKPPPGEKPSVFHTLSRVGSGCTMKELYDLGLKLAKYWKPFHRKAPPSSILCGTEKPEVYIEPCNSVIVQIKAAEIVPSDMYKTGCTLRFPRIEKIRDDKEWHECMTLDDLEQLRGKASGKLASKHLYIGGDDEPQEKKRKAAPKMKKVIGIIEHLKAPNLTNVNKISNIFEDVEFCVMSGTDSQPKPDLENRIAEFGGYIVQNPGPDTYCVIAGSENIRVKNIILSNKHDVVKPAWLLECFKTKSFVPWQPRFMIHMCPSTKEHFAREYDCYGDSYFIDTDLNQLKEVFSGIKNSNEQTPEEMASLIADLEYRYSWDCSPLSMFRRHTVYLDSYAVINDLSTKNEGTRLAIKALELRFHGAKVVSCLAEGVSHVIIGEDHSRVADFKAFRRTFKRKFKILKESWVTDSIDKCELQEENQYLI
B3: Proton-coupled zinc antiporter SLC30A8 (Homo sapiens), Q8IWU4 (parent)
chain: MEFLERTYLVNDKAAKMYAFTLESVELQQKPVNKDQCPRERPEELESGGMYHCHSGSKPTEKGANEYAYAKWKLCSASAICFIFMIAEVVGGHIAGSLAVVTDAAHLLIDLTSFLLSLFSLWLSSKPPSKRLTFGWHRAEILGALLSILCIWVVTGVLVYLACERLLYPDYQIQATVMIIVSSCAVAANIVLTVVLHQRCLGHNHKEVQANASVRAAFVHALGDLFQSISVLISALIIYFKPEYKIADPICTFIFSILVLASTITILKDFSILLMEGVPKSLNYSGVKELILAVDGVLSVHSLHIWSLTMNQVILSAHVATAASRDSQVVRREIAKALSKSFTMHSLTIQMESPVDQDPDCLFCEDPCD
partner: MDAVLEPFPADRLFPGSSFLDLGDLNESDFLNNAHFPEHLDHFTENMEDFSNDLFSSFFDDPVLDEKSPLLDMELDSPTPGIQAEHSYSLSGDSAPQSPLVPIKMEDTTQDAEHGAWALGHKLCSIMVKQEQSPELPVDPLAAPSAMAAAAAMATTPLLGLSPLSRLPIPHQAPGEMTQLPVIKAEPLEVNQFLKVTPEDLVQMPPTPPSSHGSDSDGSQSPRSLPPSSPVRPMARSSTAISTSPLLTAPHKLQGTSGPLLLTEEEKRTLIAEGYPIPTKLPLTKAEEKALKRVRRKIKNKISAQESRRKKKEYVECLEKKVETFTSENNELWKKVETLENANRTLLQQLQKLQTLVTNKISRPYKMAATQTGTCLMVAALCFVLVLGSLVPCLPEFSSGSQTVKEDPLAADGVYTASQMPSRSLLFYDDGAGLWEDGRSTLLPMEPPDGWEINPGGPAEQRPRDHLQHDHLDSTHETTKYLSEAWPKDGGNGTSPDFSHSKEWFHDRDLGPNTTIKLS
B4: Myelin proteolipid protein (Homo sapiens), P60201-2 (parent)
chain: MGLLECCARCLVGAPFASLVATGLCFFGVALFCGCGHEALTGTEKLIETYFSKNYQDYEYLINVIHAFQYVIYGTASFFFLYGALLLAEGFYTTGAVRQIFGDYKTTICGKGLSATFVGITYALTVVWLLVFACSAVPVYIYFNTWTTCQSIAFPSKTSASIGSLCADARMYGVLPWNAFPGKVCGSNLLSICKTAEFQMTFHLFIAAFVGAAATLVSLLTFMIAATYNFAVLKLMGRGTKF
partner: B3 partner
B5: Cullin-4B (Homo sapiens), Q13620 (parent)
chain: MMSQSSGSGDGNDDEATTSKDGGFSSPSPSAAAAAQEVRSATDGNTSTTPPTSAKKRKLNSSSSSSSNSSNEREDFDSTSSSSSTPPLQPRDSASPSTSSFCLGVSVAASSHVPIQKKLRFEDTLEFVGFDAKMAEESSSSSSSSSPTAATSQQQQLKNKSILISSVASVHHANGLAKSSTTVSSFANSKPGSAKKLVIKNFKDKPKLPENYTDETWQKLKEAVEAIQNSTSIKYNLEELYQAVENLCSYKISANLYKQLRQICEDHIKAQIHQFREDSLDSVLFLKKIDRCWQNHCRQMIMIRSIFLFLDRTYVLQNSMLPSIWDMGLELFRAHIISDQKVQNKTIDGILLLIERERNGEAIDRSLLRSLLSMLSDLQIYQDSFEQRFLEETNRLYAAEGQKLMQEREVPEYLHHVNKRLEEEADRLITYLDQTTQKSLIATVEKQLLGEHLTAILQKGLNNLLDENRIQDLSLLYQLFSRVRGGVQVLLQQWIEYIKAFGSTIVINPEKDKTMVQELLDFKDKVDHIIDICFLKNEKFINAMKEAFETFINKRPNKPAELIAKYVDSKLRAGNKEATDEELEKMLDKIMIIFRFIYGKDVFEAFYKKDLAKRLLVGKSASVDAEKSMLSKLKHECGAAFTSKLEGMFKDMELSKDIMIQFKQYMQNQNVPGNIELTVNILTMGYWPTYVPMEVHLPPEMVKLQEIFKTFYLGKHSGRKLQWQSTLGHCVLKAEFKEGKKELQVSLFQTLVLLMFNEGEEFSLEEIKQATGIEDGELRRTLQSLACGKARVLAKNPKGKDIEDGDKFICNDDFKHKLFRIKINQIQMKETVEEQASTTERVFQDRQYQIDAAIVRIMKMRKTLSHNLLVSEVYNQLKFPVKPADLKKRIESLIDRDYMERDKENPNQYNYIA
partner: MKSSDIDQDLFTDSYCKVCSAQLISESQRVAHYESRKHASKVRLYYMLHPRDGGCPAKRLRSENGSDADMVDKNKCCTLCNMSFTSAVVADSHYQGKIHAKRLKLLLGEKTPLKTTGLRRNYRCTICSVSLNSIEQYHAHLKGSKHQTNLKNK
B6: Sulfotransferase 2B1 (Homo sapiens), O00204 (parent)
chain: MDGPAEPQIPGLWDTYEDDISEISQKLPGEYFRYKGVPFPVGLYSLESISLAENTQDVRDDDIFIITYPKSGTTWMIEIICLILKEGDPSWIRSVPIWERAPWCETIVGAFSLPDQYSPRLMSSHLPIQIFTKAFFSSKAKVIYMGRNPRDVVVSLYHYSKIAGQLKDPGTPDQFLRDFLKGEVQFGSWFDHIKGWLRMKGKDNFLFITYEELQQDLQGSVERICGFLGRPLGKEALGSVVAHSTFSAMKANTMSNYTLLPPSLLDHRRGAFLRKGVCGDWKNHFTVAQSEAFDRAYRKQMRGMPTFPWDEDPEEDGSPDPEPSPEPEPKPSLEPNTSLEREPRPNSSPSPSPGQASETPHPRPS
partner: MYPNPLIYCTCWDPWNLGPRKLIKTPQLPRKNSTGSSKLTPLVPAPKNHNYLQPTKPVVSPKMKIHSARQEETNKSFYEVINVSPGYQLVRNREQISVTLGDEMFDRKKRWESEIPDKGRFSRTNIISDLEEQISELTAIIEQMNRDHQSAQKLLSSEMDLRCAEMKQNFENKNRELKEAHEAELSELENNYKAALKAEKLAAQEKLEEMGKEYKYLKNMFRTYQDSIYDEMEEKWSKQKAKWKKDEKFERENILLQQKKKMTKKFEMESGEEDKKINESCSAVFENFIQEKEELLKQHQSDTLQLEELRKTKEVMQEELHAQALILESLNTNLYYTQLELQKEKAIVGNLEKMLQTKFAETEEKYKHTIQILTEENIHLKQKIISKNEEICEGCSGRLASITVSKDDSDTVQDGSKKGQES
B7: Methylmalonyl-CoA epimerase, mitochondrial (Homo sapiens), Q96PE7 (parent)
chain: MARVLKAAAANAVGLFSRLQAPIPTVRASSTSQPLDQVTGSVWNLGRLNHVAIAVPDLEKAAAFYKNILGAQVSEAVPLPEHGVSVVFVNLGNTKMELLHPLGRDSPIAGFLQKNKAGGMHHICIEVDNINAAVMDLKKKKIRSLSEEVKIGAHGKPVIFLHPKDCGGVLVELEQA

Variants of: B1
Conditions: with gasp2_human GPRASP2, Q96D09

Variant | effect of a mutation on the interaction
T494M | with no effect

Variants of: B2
Conditions: with xrcc4_human XRCC4, Q13426
xrcc4_human XRCC4, Q13426, sequence (Q13426 whole entry): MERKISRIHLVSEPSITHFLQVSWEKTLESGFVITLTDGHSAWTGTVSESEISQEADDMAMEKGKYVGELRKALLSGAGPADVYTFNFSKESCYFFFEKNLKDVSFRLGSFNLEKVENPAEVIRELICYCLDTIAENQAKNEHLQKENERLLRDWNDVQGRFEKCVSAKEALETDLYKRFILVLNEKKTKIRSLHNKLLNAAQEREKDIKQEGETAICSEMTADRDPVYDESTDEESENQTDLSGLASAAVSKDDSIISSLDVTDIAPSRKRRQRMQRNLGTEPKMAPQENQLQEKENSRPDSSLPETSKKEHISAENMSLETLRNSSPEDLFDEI

Variant | effect of a mutation on the interaction
A3V | disrupting interaction strength
A857T | with no effect
T9I | with no effect

Variants of: B3
Conditions: with cr3l1_human CREB3L1, Q96BA8

Variant | effect of a mutation on the interaction
R325W | disrupting interaction strength
R325Q | with no effect

Variants of: B4
Conditions: with cr3l1_human CREB3L1, Q96BA8

Variant | effect of a mutation on the interaction
L87P | disrupting interaction strength
P15L | disrupting interaction strength
A213E | disrupting interaction strength
W128L | disrupting interaction strength

Variants of: B5
Conditions: with ZMAT4, Q9H898-2

Variant | effect of a mutation on the interaction
T213I | with no effect
V745A | with no effect

Variants of: B6
Conditions: with FLACC1, Q96Q35-2

Variant | effect of a mutation on the interaction
R230H | with no effect
D191N | with no effect

Variants of: B7
Conditions: with AGTRAP

Variant | effect of a mutation on the interaction
R143H | with no effect
R143C | with no effect
A76V | with no effect

Variants of: B7
Conditions: with CMTM5, Q96DZ9-2
CMTM5, Q96DZ9-2, sequence (Q96DZ9 other isoform, or with tags, fused parts or gaps): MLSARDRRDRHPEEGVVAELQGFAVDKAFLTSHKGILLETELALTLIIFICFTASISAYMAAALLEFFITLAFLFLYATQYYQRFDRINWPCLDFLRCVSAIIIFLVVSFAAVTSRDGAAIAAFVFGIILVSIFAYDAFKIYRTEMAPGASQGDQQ

Variant | effect of a mutation on the interaction
R143H | with no effect
R143C | with no effect
A76V | with no effect
